Source: patent publication US20080299108A1, “Peptides for Diagnostic and Therapeutic Methods for Celiac Sprue” (priority 2005, published 2008)
Entries after “also recorded” stand apart in the source; their conditions may differ. Each block holds one molecule with its values, some of them ahead of it. Where no end group is shown, it is not given here.

Tests used:
HLA-DQ2 = molecular target: T1, HLA-DQ2 (Homo sapiens, UniProt P01909+P01920, A45G/A70V/D89A/E106A/E77G/E98D/H199R/L107V/N214S/P84L/P87L/T103K/T109R/T172A/T60S/V78E/V99I/Y58L/Y62S/Y69I/Y79F); test: Peptide exchange assay (HPSEC, fluorescein-conjugated peptides); type: binding; settings: for DQ2 binding affinity: pH 5 and pH 7; for maximum occupancy (DQ2 bound peptide): pH 7.3, 45 h; for binding maximum (DQ2 bound peptide as percentage of total peptide): pH 5.5, 37° C., 45 h, 4.7 μM DQ2, 0.18 μM peptide
T1 construct: the soluble extracellular domains of the DQ2 α and β chains were co-expressed; Fos leucine zipper, joined through a factor Xa site (C); gliadin peptide […]; Jun leucine zipper, joined through a factor Xa site (C); made in house; host or cells: High Five insect cells, pAcAB3 baculovirus
Method: FIG. 8. Equilibrium occupancy of individual peptides listed in Table 1 in the DQ2 binding pocket, as measured by peptide exchange assays. Measurements were made at (A) pH 5.5 and (B) pH 7.3. 4.7 μM DQ2 was mixed with 0.18 μM fluorescein-conjugated peptide at 37° C. for 45 h, and the abundance of DQ2 bound peptide was calculated as a percentage of total peptide.
DQ2 expression and purification. Soluble DQ2 molecules were expressed and purified as previously described. Briefly, the soluble extracellular domains of the DQ2 α and β chains were co-expressed in High Five insect cells using a pAcAB3 baculovirus expression system, and were affinity-purified using the anti-DQ2 mAb 2.12.E11. […] A complementary Fos/Jun leucine zipper pair was engineered at the C-terminal ends of α and β chains, respectively, with intervening factor Xa proteolysis sites, to increase the heterodimer stability during protein expression.
The concentration of HLA-DQ2 was determined by UV spectrophotometry at 280 nm using the absorption coefficient factor 75,700 cm^−1M^−1 as calculated from the contents of tyrosine, tryptophan and cystine in the DQ2 sequence (22). Prior to use in binding experiments with exogenous ligands, the DQ2-ligand fusion protein was first treated with ˜2% w/w thrombin in pH 7.3 PBS at 0° C. for 2 h.
Peptide exchange assay. For peptide exchange experiments, the DQ2 heterodimer purified as described above was incubated with fluorescein-conjugated ligands in a 25:1 ratio (i.e. 4.7 μM DQ2 with 0.18 μM fluorescent peptide). Incubations were performed at 37° C. in a 1:1 mixture of PBS buffer (10 mM Pi, 150 mM NaCl, pH 7.3, supplemented with 0.02% NaN3) and McIlvaine's citrate-phosphate buffers (pH 5 or pH 7) such that the final pH was either 5.5 or 7.3, respectively. Peptide binding was measured by high performance size exclusion chromatography (HPSEC) (17). 1 μl of reaction mixture was diluted into 14 μl PBS. 12.5 μl of the diluted material was injected onto a BioSep 3000 size exclusion column (Phenomenex), and eluted with PBS buffer at 1 ml/min. The DQ2-peptide complex eluted at 8.5 min, with free peptides emerging […] later. The fluorescence signal was recorded using an in-line Shimadzu RA35 fluorescent detector with excitation wavelength set at 495 nm and emission detection set at 520 nm. Peak areas corresponding to the DQ2-peptide complex and the free peptide were used to calculate the fractional yield of the DQ2-fluoresceinated peptide complex.

[1] = test system: polyclonal T cell line that recognizes all α epitopes; test: T cell proliferation, polyclonal T cell line (FIG. 9A); type: cell-based, human; settings: paraformaldehyde-fixed DQ2 antigen presenting cells
Method: (§1) FIG. 9A-9B. […] Paraformaldehyde-fixed DQ2 cells were used as antigen presenting cells. (A) Proliferation of a polyclonal T cell line that recognizes all α epitopes. (B) Proliferation of a clonal T cell line that recognizes the αII epitope (peptide 3).
(§2) T cell proliferation assays. The DQ2 homozygous […] cell line (LCL) VAVY cells were irradiated with 12,000 rads of γ-irradiation or fixed with 1% paraformaldehyde for 10 minutes as indicated, and incubated with the appropriate peptides overnight in media containing 10% fetal bovine serum, 2% human serum, penicillin and streptomycin at a cell density of 2×10^6 cells/ml in 96-well plates. The next day, the volume was doubled to yield a cell density of 1×10^6 cells/ml, 50 μl of which was placed into a U-bottom 96-well plate. An equal volume of T-cells (50 μl of 1×10^6 cells/ml) was added to each well, and cells were incubated at 37° C. and 5% CO2 for 48 h, at which point 0.5 μCi/well of [methyl-^3H] thymidine (Amersham, TRK120) was added. […] After thawing, incorporated thymidine was collected on a filter mat (Wallac, 1205-401) using a Tomtec cell harvester, and counted using a Wallac 1205 Betaplate liquid scintillation counter.
(§3) To test this hypothesis, we synthesized the 20-mer peptide 5, and quantitatively compared its ability to bind DQ2 in peptide exchange and dissociation assays. […]

[2] = test system: clonal T cell line that recognizes the αII epitope; test: T cell proliferation, clonal T cell line (FIG. 9B); type: cell-based, human; settings: paraformaldehyde-fixed DQ2 antigen presenting cells
Method: as §1, §2, §3

[3] = test system: rat brush border membrane (BBM) protein; test: Rat brush border membrane (BBM) digestion of gliadin peptides, LC-MS; type: in vitro ADME; settings: for apparent half time of disappearance of the parent peptide (t1/2): 100 μM peptide, 37° C.
Method: To dissect this complex process, liquid chromatography coupled mass spectroscopy analysis (LC-MS-MS) was utilized to investigate the pathways and associated kinetics of hydrolysis of immunodominant gliadin peptides treated with rat BBM preparations. Because the rodent is an excellent small animal model for human intestinal structure and function, rat BBM was chosen as a suitable model system for these studies.
BBM fractions were prepared from rat small intestinal mucosa as described by Ahnen et al. (1982) J. Biol. Chem. 257, 12129-35. […] No proline aminopeptidase (EC 3.4.11.5) or prolyl endopeptidase activity (PEP, EC 3.4.21.26) activity was detectable (<5 μU/μg). Alkaline phosphatase and sucrase were used as control BBM enzymes with activities of 66 μU/μg and 350 μU/μg, respectively.
BBM fractions were partially purified from the small intestinal mucosa of adult female rats maintained on an ad libitum diet of wheat-based standard rodent chow. Total protein content was determined by a modified method of Lowry with BSA as a standard. Alkaline phosphatase activity was determined with nitrophenyl phosphate. Sucrase activity was measured using a coupled glucose assay.
Proteolysis with the BBM preparation was investigated using the peptide (SEQ ID NO:1) (SEQ ID NO:1) […], a product of chymotryptic digestion of α-9 gliadin (Arentz-Hansen et al. (2000) J. Exp. Med. 191, 603-12). […] It was subjected to BBM digestion, followed by LC-MS-MS analysis. A standard 50 μl digestion mixture contained 100 μM of synthetic peptide, 10 μM tryptophan and Cbz-tryptophan as internal standards, and resuspended BBM preparations with a final protein content of 27 ng/μl and exogenous proteins, as indicated, in phosphate buffered saline. After incubation at 37° C. for the indicated time, the enzymes were inactivated by heating to 95° C. for 3 minutes. The reaction mixtures were analyzed by LC-MS (SpectraSystem, ThermoFinnigan) using a C18 reversed phase column (Vydac 218TP5215, 2.1×150 mm) with water:acetonitrile:formic acid (0.1%):trifluoroacetic acid (0.025%) as the mobile phase (flow: 0.2 ml/min) and a gradient of 10% acetonitrile for 3 minutes, 10-20% for 3 minutes, 20-25% for 21 minutes followed by a 95% wash. Peptide fragments in the mass range of m/z=300-2000 were detected by electrospray ionization mass spectroscopy using a LCQ ion trap, and their identities were confirmed by MSMS fragmentation patterns.

rat jejunum = test: In vivo intestinal perfusion in intact adult rats; settings: 15-20 cm segment of jejunum, residence time 20 min
[4] = test system: rat small intestinal brush-border membrane (BBM) enzymes; test: Rat BBM digestion of peptides from α2-gliadin (12 ng/μl BBM protein); type: in vitro ADME
Method: BBM fractions were prepared from rat small intestinal mucosa.

[5] = test system: pepsin, trypsin, chymotrypsin, elastase and carboxypeptidase
[6] = molecular target: soluble HLA-DQ2 heterodimer (extracellular domains of the DQ2 α and β chains with Fos/Jun leucine zippers), thrombin-treated (human); test: peptide exchange kinetics, HPSEC
[7] = molecular target: soluble HLA-DQ2 heterodimer (extracellular domains of the DQ2 α and β chains with Fos/Jun leucine zippers), thrombin-treated (human); test: peptide exchange kinetics, HPSEC, pH 7.3
[8] = molecular target: 33-mer α2-gliadin peptide (non-deamidated), residues 57-89

- DQ2 binding affinity (HLA-DQ2): bound poorly to DQ2
Molecule: LQLQPFPQPEKPYPQPELPY [Peptide 17, L11K analogue of 20-mer peptide 5]

- DQ2 binding affinity (HLA-DQ2): bound poorly to DQ2
Molecule: LQLQPFPQPELPYPQPEKPY [Peptide 18, L18K analogue of 20-mer peptide 5]

Molecule: LQLQPFPQPELPYPQPELPY [Peptide 5]
- T cell stimulatory characteristics [1]: substantially more potent T cell antigens than the minimal αII epitope peptide 3
- DQ2 binding affinity (HLA-DQ2): comparable to the 33-mer peptide 1 in all in vitro assays; also recorded: binds to DQ2 equally well as the 33-mer peptide 1
- T cell stimulatory capacity [2]: comparable T cell stimulatory capacity that exceeds that of peptide 3

- time to half maximal DQ2 occupancy (HLA-DQ2; exchange kinetics): ~8 h
- maximum occupancy (DQ2 bound peptide) (HLA-DQ2): 28%
Molecule: LQLQPFPQPELPYPQPELPYPQPELPYPQPQPF [Peptide 1]
- T cell stimulatory characteristics [1]: substantially more potent T cell antigens than the minimal αII epitope peptide 3
- T cell stimulatory capacity [2]: comparable T cell stimulatory capacity that exceeds that of peptide 3

Molecule: LQLQPFPQPELPYPQPELPYPQPQLPYPQPQPF [Peptide 14]
- DQ2 binding affinity (HLA-DQ2): significantly enhances affinity relative to Q10E (11)

Molecule: LQLQPFPQPELPYPQPQLPYPQPELPYPQPQPF [Peptide 15]
- DQ2 binding affinity (HLA-DQ2): significantly enhances affinity relative to Q10E (11)

Molecule: LQLQPFPQPELPYPQPQLPYPQPQLPYPQPQPF [Peptide 11]
- DQ2 binding affinity (HLA-DQ2): higher affinity for DQ2 than either Q17E (12) or Q24E (13)

Molecule: LQLQPFPQPQLPYPQPELPYPQPELPYPQPQPF [Peptide 16]
- DQ2 binding affinity (HLA-DQ2): approximates the 33-mer binding characteristics

- binding maximum (DQ2 bound peptide as percentage of total peptide) (HLA-DQ2): less than 1%
- maximum occupancy (DQ2 bound peptide) (HLA-DQ2): undetectable
Molecule: PFPQPELPY [Peptide 2]

- binding maximum (DQ2 bound peptide as percentage of total peptide) (HLA-DQ2): 7%
Molecule: PQPELPYPQ [Peptide 3]

Molecule: PQPELPYPQPELPY [Peptide 6]
- DQ2 binding affinity (HLA-DQ2): considerably lower affinity for DQ2 than peptide 5

Molecule: PQPQLPYPQPQLP
- stability toward BBM digestion ([3]; 27 ng/μl rat BBM protein): highly resistant to further digestion

Molecule: QLQPFPQPQLPY
- fraction of peptide proteolyzed in the perfusion experiment (rat jejunum): > 90%
- apparent half time of disappearance of the parent peptide (t1/2) ([3]; 27 ng/μl rat BBM protein): 35 min
- digestion in the presence of exogenous DPP IV ([3]; BBM plus 6-fold excess activity of exogenous fungal DPP IV): complete digestion was observed within four hours

Molecule: RRLIEDNEYTARG
- clearance of digestive intermediates ([3]; 27 ng/μl rat BBM protein): cleared completely within one hour
- apparent half time of disappearance of the parent peptide (t1/2) ([3]; 27 ng/μl rat BBM protein): 10 min

Molecule: WQIPEQSR
- half-life of disappearance [4]: ~60 min

B1: myoglobin: another common dietary protein (protein, UniProt P02144 2-154, looked up)
Myoglobin: GLSDGEWQLVLNVWGKVEADIPGHGQEVLIRLFKGHPETLEKFDKFKHLKSEDEMKASEDLKKHGATVLTALGGILKKKGHHEAEIKPLAQSHATKHKIPVKYLEFISECIIQVLQSKHPGDFGADAQGAMNKALELFRKDMASNYKELGFQG
- stability toward gastric and pancreatic proteases [5]: rapidly broken down into much smaller products

- time to half maximal DQ2 occupancy [6]: 8 h
- maximum occupancy [7]: 28%
Molecule: {5(6)‑carboxyfluorescein}-LQLQPFPQPELPYPQPELPYPQPELPYPQPQPF [33-mer peptide 1 (deamidated 33-mer from α2-gliadin), fluorescein-conjugated]

B2: human tissue transglutaminase (tTGase) (protein)
chain: AEELVLERCDLELETNGRDHHTADLCREKLVVRRGQPFWLTLHFEGRNYEASVDSLTFSVVTGPAPSQEAGTKARFPLRDAVEEGDWTATVVDQQDCTLSLQLTTPANAPIGLYRLSLEASTGYQGSSFVLGHFILLFNAWCPADAVYLDSEEERQEYVLTQQGFIYQGSAKFIKNIPWNFGQFEDGILDICLILLDVNPKFLKNAGRDCSRRSSPVYVGRVVSGMVNCNDDQGVLLGRWDNNYGDGVSPMSWIGSVDILRRWKNHGCQRVKYGQCWVFAAVACTVLRCLGIPTRVVTNYNSAHDQNSNLLIEYFRNEFGEIQGDKSEMIWNFHCWVESWMTRPDLQPGYEGWQALDPTPQEKSEGTYCCGPVPVRAIKEGDLSTKYDAPFVFAEVNADVVDWIQQDDGSVHKSINRSLIVGLKISTKSVGRDEREDITHTYKYPEGSSEEREAFTRANHLNKLAEKEETGMAMRIRVGQSMNMGSDFDVFAHITNNTAEEYVCRLLLCARTVSYNGILGPECGTKYLLNLNLEPFSEKSVPLCILYEKYRDCLTESNLIKVRALLVEPVINSYLLAERDLYLENPEIKIRILGEPKQKRKLVAEVSLQNPLPVALEGCTFTVEGAGLTEEQKTVEIPDPVEAGEEVKVRMDLLPLHMGLHKLVVNFESDKLKAVKGFRNVIIGPA
- kcat/KM (deamidation by tTGase) [8]: kcat/KM=440 min-1 mM-1
